The source of these data is US20130224191A1, “NOTUM PROTEIN MODULATORS AND METHODS OF USE” (priority 2010, published 2013).

The test system of assay [1] is mouse lineage-depleted NTX tumor cells from SCRx-CR4. The assay is described as follows: Cell survival/proliferation, CellTiterGlo, SCRx-CR4. The settings on record: antibody 10 μg/mL, versus MOPC isotype control. The format is cell-based, human. The method, then: To determine whether Notum protein impacts cell proliferation and/or apoptosis of human colorectal cancer cells, HCT-116 cells or mouse lineage-depleted NTX tumor cells (i.e. human tumor cells) were plated as described below and exposed to recombinant hNotum (e.g. hNotum-His or hNotum-hFc) and anti-Notum antibodies. Cell numbers were then assessed 12-14 days later.
Cells were then incubated for 14 days at 37° C., 5% CO2 and 5% O2 and the number of viable cells was assessed using Promega's CellTiterGlo assay kit per the manufacturer's instructions. For the HCT-116 cell line (a commercially available colorectal tumor cell line), cells were plated at 2,000 cells per well in DMEM+1% FBS, followed 24-hours later by the addition of serum free DMEM containing recombinant human Notum in the presence or absence of monoclonal antibodies SC2.D2.2 or SC2.10B3. HCT-116 cells were then incubated for 12 days at 37° C., 5% CO2 and cell viability was assessed with Promega's CellTiterGlo assay kit. Higher readings are indicative of higher viable cell counts.
(In ATP-based viability assays light output follows the ATP content of the culture.)

Assay [2] deals with T1, Notum (Homo sapiens, UniProt Q6P988).
T1 sequence (Q6P988 20-496): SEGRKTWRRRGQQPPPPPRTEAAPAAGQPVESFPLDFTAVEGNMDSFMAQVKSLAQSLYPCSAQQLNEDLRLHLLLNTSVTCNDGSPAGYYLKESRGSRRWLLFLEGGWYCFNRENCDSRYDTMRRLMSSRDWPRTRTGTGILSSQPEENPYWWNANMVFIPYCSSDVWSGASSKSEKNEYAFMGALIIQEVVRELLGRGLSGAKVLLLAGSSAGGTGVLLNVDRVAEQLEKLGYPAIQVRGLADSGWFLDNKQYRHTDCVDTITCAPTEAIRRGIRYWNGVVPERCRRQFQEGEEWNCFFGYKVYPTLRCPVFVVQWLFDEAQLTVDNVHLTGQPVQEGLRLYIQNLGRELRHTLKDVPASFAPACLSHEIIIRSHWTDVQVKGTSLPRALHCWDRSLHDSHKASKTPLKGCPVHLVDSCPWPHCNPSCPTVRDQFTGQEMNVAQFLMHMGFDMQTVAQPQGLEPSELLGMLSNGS
In words: 293.TCF assay with rhWnt3A, standard and preincubation protocol. The assay is classed as cell-based. As for the experimental part: In order to determine the kinetics of Notum mediated antagonism of Wnt3A signaling, recombinant Notum alone or in the presence of SC2.D2.2 was preincubated with recombinant human Wnt3A (rhWnt3A) for 2 hours at 37° C., prior to addition of the complexes to 293.TCF cells. This resultant induction of luciferase by the rhWnt3A was compared to that observed using the standard protocol for the 293.TCF assay, in which Notum alone or Notum+SC2.D2.2 was added to the cells for two hours prior to the addition of rhWnt3A. […] Of interest however, is the preincubation of Notum and rhWnt3A prior to addition to the 293.TCF cells. In this case the response of the cells to rhWnt3A is reduced greatly (closed circles FIG. 27B).

The target of assay [3] is T2, hNotum-His (His tagged human Notum) (human, UniProt Q6P988 20-496).
T2 construct: also called human Notum-His; NOTUM-StrepHis
T2 sequence: T1 sequence (Q6P988 20-496)
In words: sandwich ELISA: SC2.D2.2 coated at 2 ug/ml captures Notum-His, detected with biotinylated mouse polyclonal anti-Notum 0.5 ug/ml and streptavidin-HRP, TMB, OD450. The method, then: More specifically, murine SC2.D2.2 was absorbed on standard ELISA plates at 2 μg/ml in a 50 mM sodium carbonate buffer at pH9.6. After washing the plates with PBS containing 0.05% (v/v) Tween-20 (PBST), the plates were blocked in PBS containing 2% (w/v) bovine serum albumin (BSA buffer) for two hours at ambient temperature. The content of the plates was flicked off, and purified recombinant Notum-His at varying concentrations (i.e., to provide the standard curve) or patient samples diluted in BSA buffer were added to the plates for a minimum of two hours at ambient temperature. The plates were washed in PBST before adding Notum-specific mouse polyclonal antibody conjugated to biotin at 0.5 μg/ml in BSA buffer. After incubation for one hour, the plate was washed again with PBST and incubated for 30 minutes with a 1:2000 dilution of Streptavidin conjugated to horse radish peroxidase (Jackson Immuno Research). After washing all plates twice with PBST, 100 μl TMB substrate (Thermo Scientific) was added to the wells and incubated for 30 minutes in the dark. Color reaction was stopped by adding 100 μl/well 2M sulfuric acid. Absorbance at OD 450 nm was read in all wells using a standard plate reader.
A general note: In an ELISA, binding on a coated surface is turned into a signal by an enzyme label.

In assay [4] the target is T1, Notum. The assay is described as follows: Neutralization of human Notum activity in 293.TCF luciferase assay. The format is cell-based. The arrangement: 8x-His; Strep-tag II; IgK signal peptide/leader of the pSEC-CAG vector (N); made in house; host or cells: HEK293T (adherent) / suspension 293 cells. The method, then: Using the 293.TCF cells described above, supernatants from hybridomas and/or purified antibodies shown to bind Notum by ELISA assays (Example 9) were screened for their ability to neutralize hNotum-His or hNotum-Fc activity as follows. 2.5×10^4 293.TCF cells were plated per well of a 96-well tissue culture plate in 50 μL of serum-free medium. After 23 hours of serum starvation, 10 μL of DMEM+0.2% FBS containing various Notum proteins at various concentrations were mixed with either 15 μL of supernatant from the hybridoma, or 15 μL of purified antibody at various concentrations, and allowed to incubate for 5 minutes at room temperature. The 25 μL antibody:Notum mixture was then added to the 293.TCF cells. After 1 hour, 25 μL of Wnt3A or control L-cell CM were added to each well. Eighteen hours after addition of CM, 100 μL of One-Glo solution (ProMega Corp.) was added to each well. The contents of each well were then mixed thoroughly to lyse the cells, 100 μL of lysate transferred to black 96-well plates, and the luminescence read after 5 minutes. […]

Entries after “also recorded” stand apart in the source; their conditions may differ.

B1: SC2.D2.2 (antibody, V domains shown)
VH: DVQLVESGGGLVQPGGSRKISCAASGFTFSSYGMHWVRQAPEKGLEWVAYISSSTVTTYYADTVKGRFTISRDNANNTLFLQMTSLRSEDTAMYYCSRQNWDGGYFDVWGAGTTVTVSS
VL: DIVLTQSLASLAVSLGQRATISCRASKSVSSSGYSYMHWYQQKPGQPPKLLIYLASNLESGVPARFSGSGSGTDFTLNIHPVEEEDAATYYCQHSRALPLTFGAGTKLELKR
notes: also called murine SC2.D2.2
A word on the EC50 (read off the curve): it is the concentration that produces a half-maximal response. Low values mean a more potent agent, high ones a less potent agent. Consider B1, for which the “effect on proliferation / cell numbers” value in assay [1] is “significantly less proliferation”. The “effect on response of cells to rhWnt3A” value in the assay with Notum [2] (Notum complexed with antibody prior to preincubation with rhWnt3A, 2 hours at 37° C.) is reported as “restores the sensitivity of the cells to rhWnt3A”. In addition, in the assay with Notum [2] (standard protocol, 10 μg/mL antibody, 250 ng/mL rhWnt3A), the “effect on Notum antagonism of rhWnt3A” value was “blocks the ability of Notum to antagonize the rhWnt3A”. Further, the concentration giving a half-maximal response (EC50 (read off the curve)) in assay [3] was roughly 9 ng/mL. The “inhibition of human Notum activity” value with Notum [4] is recorded as “acts in a concentration dependent manner to antagonize the effects of added hNotum-His; also recorded: can inhibit the activity of human Notum in a dose dependent fashion; also recorded: specifically inhibit the human version of Notum”.
